Test results as given in patent US20250076264A1.

Molecular target: Human α-thrombin (Haematologic Technologies, Inc.) (human)
Assay: cell-based or functional assay

Substance: Antithrombin (Grifols Therapeutics Inc.) (from UniProt P01008 33-464)
- time to completion of the fluorescence increase (dissociation of the TBA15-F9+TBA29-D9+thrombin complex) after adding 1940 nM ATIII to 200 nM complex: 600 s
